The source of these data is publication PMC5775349.

In assay [1] the target is 40S ribosomes of cells with WT uS7 (S. cerevisiae | S. cerevisiae (endogenous in yeast cells)) (UniProt P26783). The assay can be described thus: co-sedimentation; yeast lysate in TSM buffer (10 mM Tris-HCl pH7.4, 100 mM NaCl, 30 mM MgCl2), 10-40% sucrose gradient ultracentrifugation; fractions blotted with anti-HA and anti-Rio2; densitometry, duplicate experiments.
Assay [2] concerns the target 40S ribosomes of S223A cells (S. cerevisiae | S. cerevisiae (endogenous in yeast cells)) (UniProt P26783). Described as above.

For the substance “Rio2, endogenous (from UniProt P40160 1-425) (natural protein)”, the percent of Rio2 in the 40S fraction in assay [1] was 41%; in assay [2], 28%.
